Patent publication US7271172B2, “Pyrrolidine and azetidine compounds as CCR5 antagonists” (SmithKline Beecham Corporation, priority 2002, dated 2007)

Target: T1, human CCR5 chemokine receptor (Homo sapiens, UniProt P51681)
T1 construct: host or cells: Chinese Hamster Ovary (CHO) cells; membranes prepared from the cell pellet
Assay: CC-Chemokine Receptor-5 Binding by Scintillation Proximity Assay (CCR5 SPA), displacement of [125I]MIP1α
Settings: standard compound, 14-point concentration-response curve in triplicate, starting concentration 1 μM
Procedure: CC-Chemokine Receptor-5 Binding by Scintillation Proximity Assay (CCR5 SPA) Scintillation Proximity Assay for the Human CC-Chemokine Receptor, CCR-5
This protocol describes a high-throughput screen using SPA binding to identify compounds that inhibit binding of ^125-MIP1α to the human CCR5 chemokine receptor.
Human CCR5 receptors were expressed in Chinese Hamster Ovary (CHO) cells, registration # 12025. Cells were grown in suspension and a 50 to 80 ml CCR5 cell pellet was prepared. […]
The saturation curve binding experiment is performed by adding varying amounts of [^125I]MIP1α (0-8.5 nM to membranes and beads in concentrations chosen from the optimal protein/bead ratio. The data is analyzed using a non-linear curve-fitting program. The Kd and Bmax are derived from the curve. […]

T1 sequence (P51681 whole entry): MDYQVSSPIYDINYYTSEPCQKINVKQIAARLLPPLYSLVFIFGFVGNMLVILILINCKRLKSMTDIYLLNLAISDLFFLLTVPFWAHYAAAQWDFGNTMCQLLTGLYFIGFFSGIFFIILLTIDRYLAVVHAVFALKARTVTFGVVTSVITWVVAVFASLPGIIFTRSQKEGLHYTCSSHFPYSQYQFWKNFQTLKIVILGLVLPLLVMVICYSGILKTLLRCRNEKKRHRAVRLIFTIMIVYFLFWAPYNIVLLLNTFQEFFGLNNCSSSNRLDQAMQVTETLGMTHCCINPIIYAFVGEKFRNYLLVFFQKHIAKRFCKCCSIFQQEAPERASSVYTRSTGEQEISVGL

“MIP1α: natural chemokine ligand of CCR5; standard compound of the CCR5 SPA binding assay” was tested, and the “average historical pKi” value was 7.6.
